Experimental data reported in US20230212244A1 (IMMATICS BIOTECHNOLOGIES, published 2023).

B1: peptide ALWWGVVTV (SEQ ID NO: 97) (peptide)
peptide: ALWWGVVTV
notes: also called ALWWGWTV
B2: peptide MISELEVRL (SEQ ID NO: 70) (peptide)
peptide: MISELEVRL
B3: peptide TVDVATPSV (SEQ ID NO: 91) (peptide)
peptide: TVDVATPSV
B4: peptide FLFGYPKRL (SEQ ID NO: 103) (peptide)
peptide: FLFGYPKRL
B5: peptide KILVSLIEV (SEQ ID NO: 102) (peptide)
peptide: KILVSLIEV
B6: peptide NLLEKENYL (SEQ ID NO: 57) (peptide)
peptide: NLLEKENYL
B7: peptide SLLKRDFGA (SEQ ID NO: 77) (peptide)
peptide: SLLKRDFGA
B8: peptide KLLKLFQGV (SEQ ID NO: 61) (peptide)
peptide: KLLKLFQGV
B9: peptide YLAPENGYL (SEQ ID NO: 62) (peptide)
peptide: YLAPENGYL
B10: peptide YLMGFLHAV (SEQ ID NO: 74) (peptide)
peptide: YLMGFLHAV
B11: peptide SLAADQLLKL (SEQ ID NO: 79) (peptide)
peptide: SLAADQLLKL
B12: peptide AMNGKSFSV (SEQ ID NO: 98) (peptide)
peptide: AMNGKSFSV
B13: peptide KLLEVDLDTV (SEQ ID NO: 99) (peptide)
peptide: KLLEVDLDTV
B14: peptide VLFTDEGVPKFL (SEQ ID NO: 56) (peptide)
peptide: VLFTDEGVPKFL
B15: peptide KLYSRLVYV (SEQ ID NO: 96) (peptide)
peptide: KLYSRLVYV
B16: peptide QLYEEPDTKL (SEQ ID NO: 82) (peptide)
peptide: QLYEEPDTKL
B17: peptide SLQELRLLL (SEQ ID NO: 93) (peptide)
peptide: SLQELRLLL
B18: peptide YLIGEKQHYL (SEQ ID NO: 76) (peptide)
peptide: YLIGEKQHYL
B19: peptide ALMLQGVDLL (SEQ ID NO: 8) (peptide)
peptide: ALMLQGVDLL
B20: peptide RLWTEIPTAI (SEQ ID NO: 71) (peptide)
peptide: RLWTEIPTAI
B21: peptide AILDAHIEV (SEQ ID NO: 95) (peptide)
peptide: AILDAHIEV
B22: peptide LLTDNWKL (SEQ ID NO: 59) (peptide)
peptide: LLTDNVVKL
B23: peptide ILHDINSDGVL (SEQ ID NO: 85) (peptide)
peptide: ILHDINSDGVL
B24: peptide ALDPELLLL (SEQ ID NO: 78) (peptide)
peptide: ALDPELLLL
B25: peptide GLLKPGLNVVL (SEQ ID NO: 90) (peptide)
peptide: GLLKPGLNVVL
notes: also called …
B26: peptide LLFDAPDLRL (SEQ ID NO: 87) (peptide)
peptide: LLFDAPDLRL
B27: peptide KLFSILSTV (SEQ ID NO: 63) (peptide)
peptide: KLFSILSTV
B28: peptide KLDIKVETV (SEQ ID NO: 88) (peptide)
peptide: KLDIKVETV
B29: peptide SLIEYEFRV (SEQ ID NO: 89) (peptide)
peptide: SLIEYEFRV
B30: peptide AMADKMDMSL (SEQ ID NO: 58) (peptide)
peptide: AMADKMDMSL
B31: peptide EMIENIQSV (SEQ ID NO: 75) (peptide)
peptide: EMIENIQSV
B32: peptide VLDEDEPRFL (SEQ ID NO: 60) (peptide)
peptide: VLDEDEPRFL
B33: peptide YLFDIAVSM (SEQ ID NO: 73) (peptide)
peptide: YLFDIAVSM
B34: peptide KVFPGKISV (SEQ ID NO: 86) (peptide)
peptide: KVFPGKISV
B35: peptide KTLGKLWRL (SEQ ID NO: 64) (peptide)
peptide: KTLGKLWRL
B36: peptide SMVEDITGLRL (SEQ ID NO: 84) (peptide)
peptide: SMVEDITGLRL
B37: peptide WIDDTSAFV (SEQ ID NO: 92) (peptide)
peptide: WIDDTSAFV
B38: peptide GMLNEAEGKAIKL (SEQ ID NO: 69) (peptide)
peptide: GMLNEAEGKAIKL
B39: peptide LTIEDGIFEV (SEQ ID NO: 83) (peptide)
peptide: LTIEDGIFEV
B40: peptide SLDDFLATA (SEQ ID NO: 100) (peptide)
peptide: SLDDFLATA
B41: peptide SILQFVHMV (SEQ ID NO: 68) (peptide)
peptide: SILQFVHMV
B42: peptide SLNDLEKDVMLL (SEQ ID NO: 67) (peptide)
peptide: SLNDLEKDVMLL
B43: peptide FLAELPGSLSL (SEQ ID NO: 6) (peptide)
peptide: FLAELPGSLSL
B44: peptide ALLSQQTHL (SEQ ID NO: 81) (peptide)
peptide: ALLSQQTHL
B45: peptide YLTRHLAVL (SEQ ID NO: 7) (peptide)
peptide: YLTRHLAVL
B46: peptide GLDDGPDFL (SEQ ID NO: 66) (peptide)
peptide: GLDDGPDFL
B47: peptide … (SEQ ID NO: 80) (peptide)
peptide: QVDEVVDIMRV
notes: also called QVDEVVDIMRV
B48: peptide GLSEGHTFQV (SEQ ID NO: 101) (peptide)
peptide: GLSEGHTFQV
B49: peptide ILDDHLSRV (SEQ ID NO: 9) (peptide)
peptide: ILDDHLSRV
B50: peptide YLLDYPNNLL (SEQ ID NO: 72) (peptide)
peptide: YLLDYPNNLL
B51: peptide KSMDIVLTV (SEQ ID NO: 94) (peptide)
peptide: KSMDIVLTV

These binders were tested against T1, HLA-A*02:01 (human) (assay: UV-ligand exchange ELISA (anti-β2m), peptide exchange yield grade).
T1 construct: MHC class I monomer made peptide-receptive by UV cleavage of a UV-sensitive ligand; also called peptide-receptive MHC molecules
Description: Candidate peptides for T cell based therapies according to the present invention were further tested for their MHC binding capacity (affinity). The individual peptide-MHC complexes were produced by UV-ligand exchange, where a UV-sensitive peptide is cleaved upon UV-irradiation, and exchanged with the peptide of interest as analyzed. Only peptide candidates that can effectively bind and stabilize the peptide-receptive MHC molecules prevent dissociation of the MHC complexes. To determine the yield of the exchange reaction, an ELISA was performed based on the detection of the light chain (β2m) of stabilized MHC complexes. The assay was performed as generally described in Rodenko et al. (Rodenko et al., 2006).
96 well MAXISorp plates (NUNC) were coated over night with 2ug/ml streptavidin in PBS at room temperature, washed 4× and blocked for1h at 37° C. in 2% BSA containing blocking buffer. Refolded HLA-A*02:01/MLA-001 monomers served as standards, covering the range of 15-500 ng/ml. Peptide-MHC monomers of the UV-exchange reaction were diluted 100 fold in blocking buffer. Samples were incubated for 1h at 37° C., washed four times, incubated with 2 ug/ml HRP conjugated anti-β2m for 1h at 37° C., washed again and detected with TMB solution that is stopped with […]. Absorption was measured at 450 nm. Candidate peptides that show a high exchange yield (preferably higher than 50%, most preferred higher than 75 %) are generally preferred for a generation and production of antibodies or fragments thereof, and/or T cell receptors or fragments thereof, as they show sufficient avidity to the MHC molecules and prevent dissociation of the MHC complexes.
Binder B1 has a peptide exchange yield of 20 to 50%.
In the case of B2, the peptide exchange yield is reported as 50 to 75%.
B3 was tested, and the peptide exchange yield was 50 to 75%.
Binder B4 has a peptide exchange yield of 20 to 50%.
B5 gave a peptide exchange yield of 50 to 75%.
For B6, the peptide exchange yield was 50 to 75%.
In the case of B7, the peptide exchange yield is reported as 20 to 50%.
B8 showed a peptide exchange yield of 50 to 75%.
In the case of B9, the peptide exchange yield is reported as 20 to 50%.
Work on B10 yielded a peptide exchange yield of 50 to 75%.
With B11 the peptide exchange yield was 20 to 50%.
In the case of B12, the peptide exchange yield is reported as 20 to 50%.
With B13 the peptide exchange yield was 50 to 75%.
B14 gave a peptide exchange yield of 20 to 50%.
Work on B15 yielded a peptide exchange yield of 20 to 50%.
B16 gave a peptide exchange yield of 20 to 50%.
For B17, the peptide exchange yield was ≥ 75%.
B18 was tested, and the peptide exchange yield was 50 to 75%.
B19 gave a peptide exchange yield of 50 to 75%.
With B20 the peptide exchange yield was 50 to 75%.
In the case of B21, the peptide exchange yield is reported as ≥ 75%.
Work on B22 yielded a peptide exchange yield of 50 to 75%.
In the case of B23, the peptide exchange yield is reported as 20 to 50%.
For B24, the peptide exchange yield was 20 to 50%.
B25 showed a peptide exchange yield of 50 to 75%.
For B26, the peptide exchange yield was 50 to 75%.
B27 showed a peptide exchange yield of 20 to 50%.
For B28, the peptide exchange yield was ≥ 75%.
B29 gave a peptide exchange yield of 50 to 75%.
With B30 the peptide exchange yield was 20 to 50%.
With B31 the peptide exchange yield was 20 to 50%.
B32 gave a peptide exchange yield of 20 to 50%.
B33 gave a peptide exchange yield of 50 to 75%.
B34 showed a peptide exchange yield of 20 to 50%.
Binder B35 has a peptide exchange yield of 20 to 50%.
In the case of B36, the peptide exchange yield is reported as 50 to 75%.
For B37, the peptide exchange yield was 50 to 75%.
For B38, the peptide exchange yield was 20 to 50%.
Work on B39 yielded a peptide exchange yield of 50 to 75%.
With B40 the peptide exchange yield was 50 to 75%.
B41 showed a peptide exchange yield of 50 to 75%.
B42 gave a peptide exchange yield of 50 to 75%.
B43 gave a peptide exchange yield of 50 to 75%.
B44 was tested, and the peptide exchange yield was 50 to 75%.
Work on B45 yielded a peptide exchange yield of 20 to 50%.
In the case of B46, the peptide exchange yield is reported as 20 to 50%.
In the case of B47, the peptide exchange yield is reported as 20 to 50%.
With B48 the peptide exchange yield was 50 to 75%.
For B49, the peptide exchange yield was 20 to 50%.
B50 showed a peptide exchange yield of 50 to 75%.
In the case of B51, the peptide exchange yield is reported as 50 to 75%.
